Test results taken from publication PMC8324842.
Read-outs that look alike come from different tables or passages of the source.

Legend:
[1] = molecular target: dimAβ (dimeric Aβ variant: two Aβ40 units linked in one polypeptide chain through a flexible glycine-serine-rich linker) (UniProt P05067); assay: ThT fluorescence aggregation kinetics; dimAβ at pH 5.6, concentrations down to 0.4 µM, 37 °C, 150 mM NaCl
[2] = molecular target: dimAβ (dimeric Aβ variant: two Aβ40 units linked in one polypeptide chain through a flexible glycine-serine-rich linker) (UniProt P05067); assay: ThT fluorescence aggregation kinetics; dimAβ at pH 7.4, concentration series, 37 °C, 150 mM NaCl, 1 µM ThT, microplate; lag-free oligomerization phase above the critical oligomer concentration
[3] = molecular target: dimAβ (dimeric Aβ variant: two Aβ40 units linked in one polypeptide chain through a flexible glycine-serine-rich linker) (UniProt P05067); assay: as above; remark: listed apart in the source

critical oligomer concentration (COC) at pH 5.6 [1]: < 0.4 µM | critical oligomer concentration (COC) [2]: 1.5 µM | critical oligomer concentration (COC) [3]: 1 µM
Substance: dimAβ (dimeric Aβ variant: two Aβ40 units linked in one polypeptide chain through a flexible glycine-serine-rich linker) (from UniProt P05067 672-711; P05067 672-711)
